Source: patent CN113817063A (XIAMEN INNOBIOMAX BIOTECHNOLOGY CO LTD, dated 2021)

Tests used:
[1] = target: T1, DP47 (DCP 37-44 8肽) (human); experiment: 8-mer peptide competition ELISA on coated 抗原1
T1 peptide: TDVFWAKY

[2] = target: T2, DP42 (DCP 32-39 8肽) (human); experiment: 8-mer peptide competition ELISA on coated 抗原1
T2 peptide: ESSTATDV

[3] = target: T3, DP41 (DCP 31-38 8肽) (human); experiment: 8-mer peptide competition ELISA on coated 抗原1
T3 peptide: LESSTATD

[4] = target: T4, DP48 (DCP 38-45 8肽) (human); experiment: 8-mer peptide competition ELISA on coated 抗原1
T4 peptide: DVFWAKYT

[5] = target: T5, DP46 (DCP 36-43 8肽) (human); experiment: 8-mer peptide competition ELISA on coated 抗原1
T5 peptide: ATDVFWAK

[6] = target: T6, DP45 (DCP 35-42 8肽) (human); experiment: 8-mer peptide competition ELISA on coated 抗原1
T6 peptide: TATDVFWA

[7] = target: T1, DP47 (DCP 37-44 8肽); experiment: competition ELISA: 100ng/ml antibody pre-incubated with 50ug/ml 8-mer peptide, read on coated 抗原1
[8] = target: T7, DP44 (DCP 34-41 8肽) (human); experiment: as above
T7 peptide: STATDVFW

[9] = target: T2, DP42 (DCP 32-39 8肽); experiment: as above
[10] = target: T3, DP41 (DCP 31-38 8肽); experiment: as above
[11] = target: T4, DP48 (DCP 38-45 8肽); experiment: as above
[12] = target: T5, DP46 (DCP 36-43 8肽); experiment: as above
[13] = target: T8, DP43 (DCP 33-40 8肽) (human); experiment: as above
T8 peptide: SSTATDVF

[14] = target: T6, DP45 (DCP 35-42 8肽); experiment: as above
[15] = target: T9, DP5 (DCP 41-55 15肽) (human); experiment: peptide competition ELISA on coated 抗原1
T9 peptide: WAKYTACETARTPRD

[16] = target: T10, DP3 (DCP 21-35 15肽) (human); experiment: peptide competition ELISA on coated 抗原1
T10 peptide: TCSYEEAFEALESST

[17] = target: T11, DP2 (DCP 11-25 15肽) (human); experiment: peptide competition ELISA on coated 抗原1
T11 peptide: GNLERECVEETCSYE

[18] = target: T12, DP1 (DCP 1-15 15肽) (human); experiment: peptide competition ELISA on coated 抗原1
T12 peptide: ANTFLEEVRKGNLER

[19] = target: T13, 人异常凝血酶原 (Des-γ-carboxyprothrombin) (human, UniProt P00734 44-622, 第6，7，14，16，19，20，25，26，29和32位的Glu残基一个或多个羧化不全 (not fully gamma-carboxylated)); experiment: sandwich ELISA, 11H8-3 capture, 10D9-1-HRP detection, DCP in controls and sera
T13 construct: also called DCP; PIVKA-II

binding result [1]: no binding (tested: 50ug/ml多肽)
binding result [2]: no binding (tested: 50ug/ml多肽)
binding result [3]: no binding (tested: 50ug/ml多肽)
binding result [4]: no binding (tested: 50ug/ml多肽)
binding result [5]: no binding (tested: 50ug/ml多肽)
binding result [6]: no binding (tested: 50ug/ml多肽)
competition rate (对照样品OD值-检测样品OD值)/对照样品OD值 [7]: 11%
competition rate (对照样品OD值-检测样品OD值)/对照样品OD值 [8]: 29%
competition rate (对照样品OD值-检测样品OD值)/对照样品OD值 [9]: 10%
competition rate (对照样品OD值-检测样品OD值)/对照样品OD值 [10]: -2%
competition rate (对照样品OD值-检测样品OD值)/对照样品OD值 [11]: 10%
competition rate (对照样品OD值-检测样品OD值)/对照样品OD值 [12]: 4%
competition rate (对照样品OD值-检测样品OD值)/对照样品OD值 [13]: 33%
competition rate (对照样品OD值-检测样品OD值)/对照样品OD值 [14]: -9%
binding result [19]: binds
B1: 抗人DCP单克隆抗体10D9-1 (antibody, IgG1, V domains shown)
VH: EVQLQQSGPELVKPGASVKMSCKASGYTFTSYVMHWVKQKPGQGLEWIGYIFPYNDVTEYNEKFKGKATLTSDKSSSTAYMELSSLTSEDSAVYYCARWGGRNYWGQGTSVTV
VL: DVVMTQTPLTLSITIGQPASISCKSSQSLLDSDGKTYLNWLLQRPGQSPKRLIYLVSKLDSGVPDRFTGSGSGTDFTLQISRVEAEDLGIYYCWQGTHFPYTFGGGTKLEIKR
notes: also called 抗人异常凝血酶原单克隆抗体; 10D9-1-HRP
binding result [15]: no binding (tested: 判定标准为:大于90%以上显示有良好的竞争效果; 50ug/ml多肽)
binding result [16]: no binding (tested: 判定标准为:大于90%以上显示有良好的竞争效果; 50ug/ml多肽)
binding result [17]: no binding (tested: 判定标准为:大于90%以上显示有良好的竞争效果; 50ug/ml多肽)
binding result [18]: no binding (tested: 判定标准为:大于90%以上显示有良好的竞争效果; 50ug/ml多肽)
